Test [1] deals with Focal adhesion kinase (FAK), endogenous in rat aortic smooth muscle cells (rat (endogenous in RASMs)) (UniProt O35346). The test is described as follows: co-IP.
For another test, the target named is YFP-FAK (mouse) (UniProt P34152). Kind of test: FRET or BRET. A general note: In BRET a luciferase serves as donor, and the signal depends on an acceptor being close.
Chain of UniProt P34152 (P34152 whole entry): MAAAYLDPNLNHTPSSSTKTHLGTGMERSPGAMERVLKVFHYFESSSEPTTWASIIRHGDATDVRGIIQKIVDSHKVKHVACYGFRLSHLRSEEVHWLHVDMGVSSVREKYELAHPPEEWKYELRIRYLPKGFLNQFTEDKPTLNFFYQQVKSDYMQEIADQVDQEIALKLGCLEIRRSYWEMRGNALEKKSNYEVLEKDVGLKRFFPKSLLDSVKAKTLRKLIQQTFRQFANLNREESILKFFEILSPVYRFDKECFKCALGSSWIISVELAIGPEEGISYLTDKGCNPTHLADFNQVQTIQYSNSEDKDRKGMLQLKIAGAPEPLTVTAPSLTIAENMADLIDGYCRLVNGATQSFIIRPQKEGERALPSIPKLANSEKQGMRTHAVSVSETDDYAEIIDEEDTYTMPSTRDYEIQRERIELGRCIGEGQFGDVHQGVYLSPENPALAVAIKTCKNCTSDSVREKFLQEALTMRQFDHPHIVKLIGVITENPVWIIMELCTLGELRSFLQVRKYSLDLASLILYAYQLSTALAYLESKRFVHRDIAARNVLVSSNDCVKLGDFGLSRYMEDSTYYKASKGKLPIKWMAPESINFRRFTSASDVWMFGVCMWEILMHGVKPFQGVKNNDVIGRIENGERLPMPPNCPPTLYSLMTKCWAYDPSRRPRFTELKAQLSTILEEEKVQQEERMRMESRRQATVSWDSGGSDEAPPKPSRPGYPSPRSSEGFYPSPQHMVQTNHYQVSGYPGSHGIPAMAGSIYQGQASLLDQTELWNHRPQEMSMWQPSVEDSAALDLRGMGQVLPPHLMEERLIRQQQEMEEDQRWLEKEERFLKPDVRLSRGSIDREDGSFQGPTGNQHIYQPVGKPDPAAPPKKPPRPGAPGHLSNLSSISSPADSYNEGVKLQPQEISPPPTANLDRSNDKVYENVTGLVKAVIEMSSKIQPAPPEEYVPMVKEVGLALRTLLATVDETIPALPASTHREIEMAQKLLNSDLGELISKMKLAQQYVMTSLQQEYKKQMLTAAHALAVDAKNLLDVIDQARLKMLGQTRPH

Chain of UniProt O35346 (O35346 whole entry): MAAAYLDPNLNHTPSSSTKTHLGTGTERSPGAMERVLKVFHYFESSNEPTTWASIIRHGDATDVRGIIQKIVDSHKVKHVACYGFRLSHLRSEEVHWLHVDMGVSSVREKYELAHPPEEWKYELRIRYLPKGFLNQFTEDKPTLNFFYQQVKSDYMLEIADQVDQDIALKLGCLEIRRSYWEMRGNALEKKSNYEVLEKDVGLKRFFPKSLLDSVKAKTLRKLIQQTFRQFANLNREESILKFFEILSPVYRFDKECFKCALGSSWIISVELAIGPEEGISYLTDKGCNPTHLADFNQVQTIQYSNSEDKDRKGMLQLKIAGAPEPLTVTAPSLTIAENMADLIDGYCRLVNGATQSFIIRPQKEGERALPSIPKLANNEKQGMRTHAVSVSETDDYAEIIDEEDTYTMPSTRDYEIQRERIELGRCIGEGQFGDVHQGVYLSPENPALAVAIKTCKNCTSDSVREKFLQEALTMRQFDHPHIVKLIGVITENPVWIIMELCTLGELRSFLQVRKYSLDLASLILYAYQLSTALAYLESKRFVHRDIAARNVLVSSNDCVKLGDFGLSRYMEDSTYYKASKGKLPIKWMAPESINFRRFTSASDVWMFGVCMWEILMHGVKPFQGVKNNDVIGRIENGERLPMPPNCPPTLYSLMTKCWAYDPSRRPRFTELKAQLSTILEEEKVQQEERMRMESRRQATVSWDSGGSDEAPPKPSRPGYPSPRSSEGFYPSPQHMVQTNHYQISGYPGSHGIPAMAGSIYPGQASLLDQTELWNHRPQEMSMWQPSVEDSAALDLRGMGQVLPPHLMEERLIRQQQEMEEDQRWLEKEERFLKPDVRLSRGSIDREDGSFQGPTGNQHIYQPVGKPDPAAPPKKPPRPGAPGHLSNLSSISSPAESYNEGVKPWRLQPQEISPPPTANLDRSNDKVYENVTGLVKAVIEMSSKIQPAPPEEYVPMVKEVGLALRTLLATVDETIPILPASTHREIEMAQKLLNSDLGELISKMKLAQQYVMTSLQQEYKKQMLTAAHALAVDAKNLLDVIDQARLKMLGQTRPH

For the substance “cyan fluorescent protein (CFP) S217A-FRNK (natural protein)”, in test [1], the fold co-immunoprecipitation against WT-FRNK amounted to 5 fold. The substance also showed an FRET efficiency with YFP-FAK (mouse) of 53%.

These data come from article PMC6800154.
